Source: PMC3510032

Experiments:
[1] = target: Shep (endogenous, embryo nuclear extract) (Drosophila (endogenous in embryos)) (UniProt Q8MSV2); assay: co-IP; embryo nuclear extracts in HBSMT, α-Shep or pre-immune serum pre-conjugated to protein A sepharose, 1 h at 4°C; Western blotting
[2] = target: GST-Shep isoform A (Drosophila (Oregon R)); assay: pull-down; 2 µg GST or GST fusion protein immobilised on Glutathione-Agarose, 35 µg soluble His-Mod(mdg4)2.2 in 350 µL PBSMT (137 mM NaCl, 250 mM MgCl2, 0.3% Triton X-100, 1 mM DTT, 100 mg/mL BSA), 4°C, 2 h, 5 washes; bound protein detected by Western blotting
[3] = target: GST-Shep isoform B/D (Drosophila (Oregon R)); assay: as above
[4] = target: GST-Shep isoform E (Drosophila (Oregon R)); assay: as above
[5] = target: GST-Shep isoform A (Drosophila (Oregon R)); assay: pull-down; GST or GST fusion protein immobilised on Glutathione-Agarose, soluble His-Su(Hw) in HBSM (50 mM HEPES pH 6.7, 150 mM NaCl, 5 mM KCl, 2.5 mM MgCl2) with 0.3% Triton-X 100, 0.2 M KCl, 1 mM DTT, 100 mg/mL BSA, 4°C, 2 h; bound protein detected by Western blotting
[6] = target: GST-Shep isoform B/D (Drosophila (Oregon R)); assay: as above
[7] = target: GST-Shep isoform E (Drosophila (Oregon R)); assay: as above

Question: How did the percent of total recovered in the IP [1] turn out when “Mod(mdg4)2.2 (endogenous, embryo nuclear extract) (natural protein)” was run?
Answer: 0.1%

Question: Which results are given for His-Mod(mdg4)2.2 (natural protein)?
Answer: stoichiometry N [2]: 1 molar ratio; stoichiometry N [3]: 1 molar ratio; stoichiometry N [4]: 1 molar ratio

B1: His-Su(Hw) (natural protein)
chain: MSASKEGKEKKGKLLGVENISPPKDKRPATRMKLLNDVGAGEDSEASTTTTTSRTPSNKQEKRGSVAGSRIKILNEEILGTPKTEKRGATKSTAPAASTVKILNEKKTPSATVTAVETTKIKTSPSKRKKMEHYVLQAVKSENTKADTTVTVVTEEDDTIDFILADDEEVVPGRIENNNGQEIVVTEDDEDLGEDGDEDGEDSSGKGNSSQTKIKEIVEHVCGKCYKTFRRVQSLKKHLEFCRYDSGYHLRKADMLKNLEKIEKDAVVMEKKDICFCCSESYDTFHLGHINCPDCPKSFKTQTSYERHIFITHSEFSDFPCSICNANLRSEALLALHEEQHKSRGKPYACKICGKDFTRSYHLKRHQKYSSCSSNETDTMSCKVCDRVFYRLDNLRSHLKQHLGTQVVKKPEYMCHTCKNCFYSLSTLNIHIRTHTGEKPFDCDLCDKKFSALVALKKHRRYHTGEKPYSCTVCNQAFAVKEVLNRHMKRHTGERPHKCDECGKSFIQATQLRTHSKTHIRPFPCEQCDEKFKTEKQLERHVKTHSRTKRPVFSCAECKRNFRTPALLKEHMDEGKHSPKQQRSSMRSAVKIMERTDCAICDKNFDSSDTLRRHIRTVHECDPDDIFGVEPHPSKRAKKDIESEEVVPVALNTSAGSLISSQTDGNGVVVREFLVDEGDGAAQTITLENETYTILPLDGAIEGEQLTDEAGVKPEAKKEEAQVSPVVKKEQRKSLAASLAAAIADNLEESCSEDDFSGEILTEEDIKLKENVGKLIDMLVDPPILKKYGWPNAPEETVLCKVIENCGHDLTKGGENYAELDYGSRMREYCKLLFTVVIHNDSIKSLLNNFPIDDVIEYVLGDEDQDEGGLDKDNESHSGDEEAVSVTGETKTNEIREKPEKKEVSAKSEKKEIVGKAVDKDNSEEVVRENKKKPVGEQEKA
Question: How did the stoichiometry N [5] turn out when B1 was run?
Answer: 1 molar ratio

Question: And the stoichiometry N [6]?
Answer: 1 molar ratio

Question: What about the stoichiometry N [7] of the same molecule?
Answer: 1 molar ratio
